Experimental findings from IntAct's records for PubMed 21930971 are described below.

Sequences and labels used below:
B1: Complement factor H (Homo sapiens), P08603-1 (parent)
chain: MRLLAKIICLMLWAICVAEDCNELPPRRNTEILTGSWSDQTYPEGTQAIYKCRPGYRSLGNVIMVCRKGEWVALNPLRKCQKRPCGHPGDTPFGTFTLTGGNVFEYGVKAVYTCNEGYQLLGEINYRECDTDGWTNDIPICEVVKCLPVTAPENGKIVSSAMEPDREYHFGQAVRFVCNSGYKIEGDEEMHCSDDGFWSKEKPKCVEISCKSPDVINGSPISQKIIYKENERFQYKCNMGYEYSERGDAVCTESGWRPLPSCEEKSCDNPYIPNGDYSPLRIKHRTGDEITYQCRNGFYPATRGNTAKCTSTGWIPAPRCTLKPCDYPDIKHGGLYHENMRRPYFPVAVGKYYSYYCDEHFETPSGSYWDHIHCTQDGWSPAVPCLRKCYFPYLENGYNQNYGRKFVQGKSIDVACHPGYALPKAQTTVTCMENGWSPTPRCIRVKTCSKSSIDIENGFISESQYTYALKEKAKYQCKLGYVTADGETSGSITCGKDGWSAQPTCIKSCDIPVFMNARTKNDFTWFKLNDTLDYECHDGYESNTGSTTGSIVCGYNGWSDLPICYERECELPKIDVHLVPDRKKDQYKVGEVLKFSCKPGFTIVGPNSVQCYHFGLSPDLPICKEQVQSCGPPPELLNGNVKEKTKEEYGHSEVVEYYCNPRFLMKGPNKIQCVDGEWTTLPVCIVEESTCGDIPELEHGWAQLSSPPYYYGDSVEFNCSESFTMIGHRSITCIHGVWTQLPQCVAIDKLKKCKSSNLIILEEHLKNKKEFDHNSNIRYRCRGKEGWIHTVCINGRWDPEVNCSMAQIQLCPPPPQIPNSHNMTTTLNYRDGEKVSVLCQENYLIQEGEEITCKDGRWQSIPLCVEKIPCSQPPQIEHGTINSSRSSQESYAHGTKLSYTCEGGFRISEENETTCYMGKWSSPPQCEGLPCKSPPEISHGVVAHMSDSYQYGEEVTYKCFEGFGIDGPAIAKCLGEKWSHPPSCIKTDCLSLPSFENAIPMGEKKDVYKAGEQVTYTCATYYKMDGASNVTCINSRWTGRPTCRDTSCVNPPTVQNAYIVSRQMSKYPSGERVRYQCRSPYEMFGDEEVMCLNGNWTEPPQCKDSTGKCGPPPPIDNGDITSFPLSVYAPASSVEYQCQNLYQLEGNKRITCRNGQWSEPPKCLHPCVISREIMENYNIALRWTAKQKLYSRTGESVEFVCKRGYRLSSRSHTLRTTCWDGKLEYPTCAKR
partner: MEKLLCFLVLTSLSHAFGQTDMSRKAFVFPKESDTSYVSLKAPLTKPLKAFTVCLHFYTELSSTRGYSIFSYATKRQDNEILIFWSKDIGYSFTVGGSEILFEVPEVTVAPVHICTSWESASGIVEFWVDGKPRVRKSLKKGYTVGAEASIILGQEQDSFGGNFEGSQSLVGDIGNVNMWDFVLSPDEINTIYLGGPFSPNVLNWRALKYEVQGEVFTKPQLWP
B2: Complement factor H (Homo sapiens), P08603-2 (parent)
chain: MRLLAKIICLMLWAICVAEDCNELPPRRNTEILTGSWSDQTYPEGTQAIYKCRPGYRSLGNVIMVCRKGEWVALNPLRKCQKRPCGHPGDTPFGTFTLTGGNVFEYGVKAVYTCNEGYQLLGEINYRECDTDGWTNDIPICEVVKCLPVTAPENGKIVSSAMEPDREYHFGQAVRFVCNSGYKIEGDEEMHCSDDGFWSKEKPKCVEISCKSPDVINGSPISQKIIYKENERFQYKCNMGYEYSERGDAVCTESGWRPLPSCEEKSCDNPYIPNGDYSPLRIKHRTGDEITYQCRNGFYPATRGNTAKCTSTGWIPAPRCTLKPCDYPDIKHGGLYHENMRRPYFPVAVGKYYSYYCDEHFETPSGSYWDHIHCTQDGWSPAVPCLRKCYFPYLENGYNQNYGRKFVQGKSIDVACHPGYALPKAQTTVTCMENGWSPTPRCIRVSFTL
partner: B1 partner

One test covers variants of B1. As to conditions: with crp_human CRP.
For Y402H, the “effect of a mutation on the interaction” value is listed as “decreasing interaction strength”.

In another test the parent is B2. As to conditions: with crp_human CRP.
Consider Y402H, for which the “effect of a mutation on the interaction” value was “decreasing interaction strength”.
